In IntAct's records for PubMed 23511974:

B1: Centrosomal protein of 135 kDa (Homo sapiens), Q66GS9 (parent)
chain: MTTAVERKYINIRKRLDQLGYRQTLTVECLPLVEKLFSDLVHTTESLRQSKLSAVKAEKESANFDFVLEPYKLENARLSRENNELYLELMKLREHSDQHVKELKTSLKKCARETADLKFLNNQYAHKLKLLEKESKAKNERIQQLQEKNLHAVVQTPGGKKRSIAFRRQRMQIDEPVPPSEVSSYPVPQPDDPYIADLLQVADNRIQELQQEVHQLQEKLAMMESGVRDYSKQIELREREIERLSVALDGGRSPDVLSLESRNKTNEKLIAHLNIQVDFLQQANKDLEKRIRELMETKETVTSEVVNLSNKNEKLCQELTEIDQLAQQLERHKEEVLETADKELGEAKKEIKRKLSEMQDLEETMAKLQLELNLCQKEKERLSDELLVKSDLETVVHQLEQEKQRLSKKVESFAVTERQLTLEVERMRLEHGIKRRDRSPSRLDTFLKGIEEERDYYKKELERLQHIIQRRSCSTSYSAREKSSIFRTPEKGDYNSEIHQITRERDELQRMLERFEKYMEDIQSNVKLLTAERDKLSVLYNEAQEELSALRKESTQTTAPHNIVSLMEKEKELALSDLRRIMAEKEALREKLEHIEEVSLFGKSELEKTIEHLTCVNHQLESEKYELKSKVLIMKETIESLENKLKVQAQKFSHVAGDSSHQKTEVNSLRIVNEQLQRSVDDYQHRLSIKRGELESAQAQIKILEEKIDELNLKMTSQDEEAHVMKKTIGVIDKEKDFLQETVDEKTEKIANLQENLANKEKAVAQMKIMISECESSVNQLKETLVNRDREINSLRRQLDAAHKELDEVGRSREIAFKENRRLQDDLATMARENQEISLELEAAVQEKEEMKSRVHKYITEVSRWESLMAAKEKENQDLLDRFQMLHNRAEDWEVKAHQAEGESSSVRLELLSIDTERRHLRERVELLEKEIQEHINAHHAYESQISSMAKAMSRLEEELRHQEDEKATVLNDLSSLRELCIKLDSGKDIMTQQLNSKNLEFERVVVELENVKSESDLLKKQLSNERHTVKNLESLLATNRDKEFHSHLTSHEKDTEIQLLKEKLTLSESKLTSQSRENTMLRAKVAQLQTDYDALKRQISTERYERERAIQEMRRHGLATPPLSSTLRSPSHSPEHRNV
partner: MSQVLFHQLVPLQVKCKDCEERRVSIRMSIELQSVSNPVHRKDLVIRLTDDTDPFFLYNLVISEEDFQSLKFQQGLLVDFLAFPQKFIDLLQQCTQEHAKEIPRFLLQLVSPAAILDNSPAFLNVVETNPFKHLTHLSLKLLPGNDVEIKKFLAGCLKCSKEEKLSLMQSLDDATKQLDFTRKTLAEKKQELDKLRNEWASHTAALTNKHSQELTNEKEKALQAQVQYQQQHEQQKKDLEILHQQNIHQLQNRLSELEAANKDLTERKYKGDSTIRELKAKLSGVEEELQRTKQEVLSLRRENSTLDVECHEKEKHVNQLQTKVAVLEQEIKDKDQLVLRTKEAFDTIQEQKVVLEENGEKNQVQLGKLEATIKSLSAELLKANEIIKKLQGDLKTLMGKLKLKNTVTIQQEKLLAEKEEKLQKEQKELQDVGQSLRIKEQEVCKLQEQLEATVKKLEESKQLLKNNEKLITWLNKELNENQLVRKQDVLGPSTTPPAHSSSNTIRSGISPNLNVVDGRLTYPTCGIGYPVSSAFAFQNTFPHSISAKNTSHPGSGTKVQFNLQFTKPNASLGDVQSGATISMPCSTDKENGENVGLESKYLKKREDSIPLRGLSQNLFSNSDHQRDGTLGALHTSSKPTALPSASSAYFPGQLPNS

Variants of: B1
Details: with sas6_human SASS6, Q6UVJ0

Variant	effect of a mutation on the interaction
L588P	disrupting interaction
